Reference: the supplement of paper PMC10724198
± gives the standard deviation of the averaged measurements.

These sequences were tested on Saccharomyces cerevisiae (assay: protein stability index of tFT-peptide fusion (C-terminal peptide) (PSI (0-1 scale)); higher = more stable (slower turnover)). Settings: genetic background: das1 deletion; temperature: 30 C.
Procedure: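 MPS profiling in S. cerevisiae of the yeast C-terminome library: the last 12 aa of each annotated ORF are fused to the C-terminus of a sfGFP-mCherry timer, after a GGGS linker. Cells are FACS-sorted into 8 mCherry/sfGFP bins and deep-sequenced. PSI runs from 0 (unstable) to 1 (stable); wild type and das1Δ backgrounds, two technical replicates each.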

Compared with TVQSKLGDHGFN [PEP7 C-terminal 12 aa], TYKRIKQDEKTD [ALG12 C-terminal 12 aa] is higher in protein stability index: 0.679 ± 0.015 for the first, 0.7248 ± 0.0072 for the second.

VACNPVAMADHQ [TUS1 C-terminal 12 aa] and VADAMLDQGDVF [GDH3 C-terminal 12 aa] are within error of each other in protein stability index: 0.71 ± 0.033 for the first, 0.7137 ± 0.0052 for the second.

Going from VDDYVAAGFQTL [SUT2 C-terminal 12 aa] to “VDFLSKKLLKLR [YFL041W-A C-terminal 12 aa]”, the protein stability index falls from 0.7372 ± 0.0021 to 0.694 ± 0.0088.

VDIALYLTRSQT [YGR039W C-terminal 12 aa] and VEIFVDKLIDFL [THI80 C-terminal 12 aa] are within error of each other in protein stability index: 0.699 ± 0.017 for the first, 0.674 ± 0.014 for the second.

Compared with VEMAVKFGKNAF [RIB4 C-terminal 12 aa], VESKFTEKIKSM [RPC19 C-terminal 12 aa] is lower in protein stability index: 0.696 ± 0.012 for the first, 0.6704 ± 0.0024 for the second.

First: VETELEMVAEKA [YEH1 C-terminal 12 aa]
Second: VFLYRKRIFIKL [GWT1 C-terminal 12 aa]
The protein stability index of the first is higher: 0.646 ± 0.0079 for the first, 0.606 ± 0.021 for the second.

VFTPFLFGELIG [ERG1 C-terminal 12 aa] and VHDQTNLELYYL [HUB1 C-terminal 12 aa] are within error of each other in protein stability index: 0.718 ± 0.0073 for the first, 0.708 ± 0.0075 for the second.

VHKDLDIKTVTL [PRO2 C-terminal 12 aa] and VHKLGWSLSFDA [POR1 C-terminal 12 aa] are within error of each other in protein stability index: 0.691 ± 0.013 for the first, 0.706 ± 0.022 for the second.

Going from “VILYRSVMKLSP [YOR073W-A C-terminal 12 aa]” to VISYLLGADIHF [SMF3 C-terminal 12 aa], the protein stability index rises from 0.646 ± 0.011 to 0.712 ± 0.013.

VKDRPRGKDARL [RML2 C-terminal 12 aa] and VKKCWEKEKDGI [MKK2 C-terminal 12 aa] are within error of each other in protein stability index: 0.727 ± 0.058 for the first, 0.675 ± 0.018 for the second.

VLDQITGDLKLY [PTH2 C-terminal 12 aa] and “VLLIRSDKKKKV [YIL102C-A C-terminal 12 aa]” are within error of each other in protein stability index: 0.691 ± 0.014 for the first, 0.71 ± 0.024 for the second.

First: VLSNLAVKALQN [PRM3 C-terminal 12 aa]
Second: VMQVQCLFFFIL [YJL156W-A C-terminal 12 aa]
The protein stability index of the first is higher: 0.68 ± 0.018 for the first, 0.556 ± 0.019 for the second.

First: VNNAPARAKVSK [RCR2 C-terminal 12 aa]
Second: VPELTEKLGKYK [AIM45 C-terminal 12 aa]
The protein stability index of the first is lower: 0.67539 ± 0.00065 for the first, 0.697 ± 0.019 for the second.

Compared with VRKNVTWNNLWE [CTF18 C-terminal 12 aa], VRKVAQWLQQLT [FSH2 C-terminal 12 aa] is lower in protein stability index: 0.705 ± 0.013 for the first, 0.6838 ± 0.0012 for the second.

VSGFYDHDINGY [APJ1 C-terminal 12 aa] and VSIKKLGRKLEN [FYV6 C-terminal 12 aa] are within error of each other in protein stability index: 0.7529 ± 0.0033 for the first, 0.727 ± 0.023 for the second.

Compared with “VSMKAIFSCMYV [YMR272W-B C-terminal 12 aa]”, VTGFKDEVLETV [RPS1A C-terminal 12 aa] is higher in protein stability index: 0.6576 ± 0.0051 for the first, 0.7042 ± 0.001 for the second.

Going from VTGSVPAYCDDD [ART5 C-terminal 12 aa] to VTIFTWSSLLFV [TED1 C-terminal 12 aa], the protein stability index falls from 0.6825 ± 0.0031 to 0.438 ± 0.0058.

VTNPKGRLALEA [RPL32 C-terminal 12 aa] and VTQILYTPIESS [SIP2 C-terminal 12 aa] are within error of each other in protein stability index: 0.6613 ± 0.0025 for the first, 0.679 ± 0.028 for the second.

VTVYGGRSRMSA [YJL152W C-terminal 12 aa] and VVGFYFQGALSE [VNX1 C-terminal 12 aa] are within error of each other in protein stability index: 0.6989 ± 0.0061 for the first, 0.673 ± 0.025 for the second.

Going from VVIIVPIVVHFS [SNC2 C-terminal 12 aa] to VVKRKKVKTKRI [JJJ1 C-terminal 12 aa], the protein stability index rises from 0.351 ± 0.012 to 0.689 ± 0.041.

First: VVNNRIFSGISK [RSM26 C-terminal 12 aa]
Second: VWKRARVDLIAS [POL12 C-terminal 12 aa]
The protein stability index of the first is higher: 0.713 ± 0.027 for the first, 0.591 ± 0.019 for the second.

Compared with VWLAAALPLAFI [PRM7 C-terminal 12 aa], VWSLYSRTALET [OAR1 C-terminal 12 aa] is higher in protein stability index: 0.58 ± 0.0063 for the first, 0.6176 ± 0.004 for the second.

First: VYSIESRVLGHN [OAC1 C-terminal 12 aa]
Second: WAIESVDENWRF [TOP1 C-terminal 12 aa]
The protein stability index of the first is lower: 0.679 ± 0.015 for the first, 0.746 ± 0.032 for the second.

Compared with WARRSFSSYDLC [GID11 C-terminal 12 aa], WDLEQIMSQHGF [PCL1 C-terminal 12 aa] is higher in protein stability index: 0.7053 ± 0.0036 for the first, 0.7397 ± 0.007 for the second.

WLTTKMSSSEAS [UIP4 C-terminal 12 aa] and WNCFLSMRNASK [YOR292C C-terminal 12 aa] are within error of each other in protein stability index: 0.708 ± 0.014 for the first, 0.693 ± 0.012 for the second.

First: WRFLGIVKSPNT [YDR510C-A C-terminal 12 aa]
Second: WRQEYPGVDEFF [PRM8 C-terminal 12 aa]
The protein stability index of the first is lower: 0.6815 ± 0.0017 for the first, 0.742 ± 0.0099 for the second.

First: YAGIPENKIIGV [ARG56 C-terminal 12 aa]
Second: YCLAGVLCVFCV [YPR064W C-terminal 12 aa]
The protein stability index of the first is higher: 0.703 ± 0.048 for the first, 0.431 ± 0.013 for the second.

First: YDKESDDRKCCL [CTR3 C-terminal 12 aa]
Second: YGISSSVLKGST [PHO87 C-terminal 12 aa]
The protein stability index of the first is lower: 0.681 ± 0.0083 for the first, 0.7153 ± 0.0032 for the second.

YGLNIGRPDFYR [TAF10 C-terminal 12 aa] and YHAVDSTMSPKN [OST4 C-terminal 12 aa] are within error of each other in protein stability index: 0.725 ± 0.016 for the first, 0.693 ± 0.019 for the second.

Going from YHKLVDEVFQHL [MPA43 C-terminal 12 aa] to YIDDIDQTIPKY [UBA4 C-terminal 12 aa], the protein stability index rises from 0.71092 ± 0.00027 to 0.7441 ± 0.0062.

Going from YILFFLFQLSIM [PEX35 C-terminal 12 aa] to YKDDEDDDIEMT [PDS5 C-terminal 12 aa], the protein stability index rises from 0.342 ± 0.02 to 0.679 ± 0.011.

YLGAKTGSLIDF [KAR5 C-terminal 12 aa] and YLIAVTNLVERE [PPT2 C-terminal 12 aa] are within error of each other in protein stability index: 0.702 ± 0.015 for the first, 0.682 ± 0.045 for the second.

Going from YLKLRGANFVLK [IES6 C-terminal 12 aa] to “YLKRCCYHPMQN [YIL020C-A C-terminal 12 aa]”, the protein stability index rises from 0.695 ± 0.013 to 0.72572 ± 0.00065.

Compared with YLRRFFEVTSLV [EMP24 C-terminal 12 aa], YLYVFLQQARLE [YBR032W C-terminal 12 aa] is lower in protein stability index: 0.552 ± 0.011 for the first, 0.51 ± 0.029 for the second.

Going from YMIRFIANGYYY [SWR1 C-terminal 12 aa] to YMKHLLECRSLW [PCD1 C-terminal 12 aa], the protein stability index rises from 0.613 ± 0.014 to 0.733 ± 0.019.

Going from YNINDLYKSLTR [MAK32 C-terminal 12 aa] to YPVGQVDRDVCC [TAD3 C-terminal 12 aa], the protein stability index falls from 0.7059 ± 0.0029 to 0.6955 ± 0.0022.

Compared with YQGVIYGIDGDQ [POP2 C-terminal 12 aa], “YSISISLHTPCV [YHR049C-A C-terminal 12 aa]” is lower in protein stability index: 0.699 ± 0.012 for the first, 0.66 ± 0.013 for the second.

YTDLASIASGRD [SHS1 C-terminal 12 aa] and YTVLEDDANDEK [HAP1 C-terminal 12 aa] are within error of each other in protein stability index: 0.691 ± 0.016 for the first, 0.673 ± 0.017 for the second.

YVFVFIIDFIIR [FUN26 C-terminal 12 aa] showed a protein stability index of 0.213 ± 0.006.
